According to publication PMC4974627 (Biochemistry, 2016):

Target: the molecule itself
Test: native MS

B1: Arabidopsis thaliana S-nitrosoglutathione reductase (AtGSNOR), CysSH-treated control (unmodified) (enzyme)
chain: ATQGQVITCKAAVAYEPNKPLVIEDVQVAPPQAGEVRIKILYTALCHTDAYTWSGKDPEGLFPCILGHEAAGIVESVGEGVTEVQAGDHVIPCYQAECRECKFCKSGKTNLCGKVRSATGVGIMMNDRKSRFSVNGKPIYHFMGTSTFSQYTVVHDVSVAKIDPTAPLDKVCLLGCGVPTGLGAVWNTAKVEPGSNVAIFGLGTVGLAVAEGAKTAGASRIIGIDIDSKKYETAKKFGVNEFVNPKDHDKPIQEVIVDLTDGGVDYSFECIGNVSVMRAALECCHKGWGTSVIVGVAASGQEISTRPFQLVTGRVWKGTAFGGFKSRTQVPWLVEKYMNKEIKVDEYITHNLTLGEINKAFDLLHEGTCLRCVLDTSK
stoichiometry N: 2
